Values of other authors, collected in paper PMC3381941.
Like-named read-outs stand apart in the source and are kept apart here.

Legend:
[1] = biological target: Mtf1 (Saccharomyces cerevisiae) (UniProt P14908); experiment: protein-protein crosslinking
[2] = biological target: Mtf1 (Saccharomyces cerevisiae) (UniProt P14908); experiment: protein-protein crosslinking; remark: listed apart in the source

UniProt P14908, sequence (P14908 2-341): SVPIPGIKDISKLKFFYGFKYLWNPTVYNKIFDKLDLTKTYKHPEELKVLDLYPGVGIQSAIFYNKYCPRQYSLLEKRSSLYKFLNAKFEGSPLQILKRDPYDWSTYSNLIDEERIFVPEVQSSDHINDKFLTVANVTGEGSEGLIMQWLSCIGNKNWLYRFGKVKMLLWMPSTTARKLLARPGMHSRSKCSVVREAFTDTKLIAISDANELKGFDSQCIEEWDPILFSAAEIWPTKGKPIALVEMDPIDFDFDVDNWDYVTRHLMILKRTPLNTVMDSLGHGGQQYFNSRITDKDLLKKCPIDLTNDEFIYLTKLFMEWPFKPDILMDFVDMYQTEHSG

Kd [1]: 600 nM | Kd [2]: 400 nM
Substance: Rpo41 (from UniProt P13433)
